Test results published in paper PMC10115629, “Structural basis for GSDMB pore formation and its targeting by IpaH7.8” (Nature, 2023).

T1: human GSDMD, full length (human), P57764
T1 chain: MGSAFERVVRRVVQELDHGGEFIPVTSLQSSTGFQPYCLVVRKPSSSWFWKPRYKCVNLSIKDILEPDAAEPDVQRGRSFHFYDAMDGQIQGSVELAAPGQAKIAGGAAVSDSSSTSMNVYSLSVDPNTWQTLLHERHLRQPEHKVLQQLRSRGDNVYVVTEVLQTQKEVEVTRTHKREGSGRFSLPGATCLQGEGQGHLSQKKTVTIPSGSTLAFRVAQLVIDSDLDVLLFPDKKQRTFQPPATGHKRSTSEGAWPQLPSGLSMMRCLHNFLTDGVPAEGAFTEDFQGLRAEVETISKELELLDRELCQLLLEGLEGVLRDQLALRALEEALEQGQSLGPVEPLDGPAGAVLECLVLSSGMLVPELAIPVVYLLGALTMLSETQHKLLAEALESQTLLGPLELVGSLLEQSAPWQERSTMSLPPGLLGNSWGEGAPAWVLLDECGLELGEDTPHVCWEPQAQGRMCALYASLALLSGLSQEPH

B1: Shigella flexneri IpaH7.8 without affinity tag (co-expressed with GSDMB) (enzyme)
chain: MFSVNNTHSSVSCSPSINSNSTSNEHYLRILTEWEKNSSPGEERGIAFNRLSQCFQNQEAVLNLSDLNLTSLPELPKHISALIVENNKLTSLPKLPAFLKELNADNNRLSVIPELPESLTTLSVRSNQLENLPVLPNHLTSLFVENNRLYNLPALPEKLKFLHVYYNRLTTLPDLPDKLEILCAQRNNLVTFPQFSDRNNIRQKEYYFHFNQITTLPESFSQLDSSYRINISGNPLSTRVLQSLQRLTSSPDYHGPQIYFSMSDGQQNTLHRPLADAVTAWFPENKQSDVSQIWHAFEHEEHANTFSAFLDRLSDTVSARNTSGFREQVAAWLEKLSASAELRQQSFAVAADATESCEDRVALTWNNLRKTLLVHQASEGLFDNDTGALLSLGREMFRLEILEDIARDKVRTLHFVDEIEVYLAFQTMLAEKLQLSTAVKEMRFYGVSGVTANDLRTAEAMVRSREENEFTDWFSLWGPWHAVLKRTEADRWAQAEEQKYEMLENEYSQRVADRLKASGLSGDADAEREAGAQVMRETEQQIYRQLTDEVLALRLSENGSRLHHS
notes: only the LRR domain is visible in the map; source: E. coli BL21 (DE3), co-expressed with His6-SUMO-GSDMB, complex purified (Ni-NTA, Hitrap Q, Superdex 200)
B2: human GSDMB isoform 1 construct for cryo-EM, 3C protease site inserted after K239 (uncleaved, full length) (natural protein)
chain: MFSVFEEITRIVVKEMDAGGDMIAVRSLVDADRFRCFHLVGEKRTFFGCRHYTTGLTLMDILDTDGDKWLDELDSGLQGQKAEFQILDNVDSTGELIVRLPKEITISGSFQGFHHQKIKISENRISQQYLATLENRKLKRELPFSFRSINTRENLYLVTETLETVKEETLKSDRQYKFWSQISQGHLSYKHKGQREVTIPPNRVLSYRVKQLVFPNKETMSAGLDIHFRGKTKSFPEGKLEVLFQGPSLGSEDSRNMKEKLEDMESVLKDLTEEKRKDVLNSLAKCLGKEDIRQDLEQRVSEVLISGELHMEDPDKPLLSSLFNAAGVLVEARAKAILDFLDALLELSEEQQFVAEALEKGTLPLLKDQVKSVMEQNWDELASSPPDMDYDPEARILCALYVVVSILLELAEGPTSVSS
notes: human gasdermin B isoform 1 (Q8TAX9-1), full length, with a human rhinovirus 3C protease site (LEVLFQ/GP) inserted after residue K239; The methods say the 3C site is in 'the GSDMB construct used for cryo-EM structural determination'; source: E. coli BL21 (DE3), co-expressed with IpaH7.8, complex purified (Ni-NTA, Hitrap Q, Superdex 200); not shown: His6-SUMO, N-terminal, cleaved
B3: GSDMB isoform 1 pore subunit (N-terminal domain after 3C protease cleavage) (domain or fragment)
chain: MFSVFEEITRIVVKEMDAGGDMIAVRSLVDADRFRCFHLVGEKRTFFGCRHYTTGLTLMDILDTDGDKWLDELDSGLQGQKAEFQILDNVDSTGELIVRLPKEITISGSFQGFHHQKIKISENRISQQYLATLENRKLKRELPFSFRSINTRENLYLVTETLETVKEETLKSDRQYKFWSQISQGHLSYKHKGQREVTIPPNRVLSYRVKQLVFPNKETMSAGLDIHFRGKTKSFPEGKLEVLFQ
notes: human gasdermin B isoform 1 (Q8TAX9-1), from the start to K239, after which the 3C site was inserted; what is left of the 3C protease site (LEVLFQ/GP) after cleavage; Pores were 24-26-fold symmetric; GSDMB-C was removed by size exclusion; also called GSDMB pore; GSDMB prepore; source: E. coli BL21 (DE3), purified; cleaved by 3C protease on liposomes, pores extracted with C12E8 and purified on …

Key:
[1] = biological target: human GSDMB (isoform 1, Q8TAX9-1), full length (human); assay: ITC; VP-ITC, 20 °C, 25 mM Tris-HCl pH 8.0, 150 mM NaCl; IpaH7.8 (200 μM) injected into GSDMB (10 μM), or IpaH7.8 (625 μM) into hGSDMD or mGSDMD (40 μM); 25 injections; one-site binding model
[2] = biological target: B2; assay: cryo-EM structure; GSDMB-IpaH7.8 complex co-expressed in E. coli and co-purified, 0.5 mg/ml, 25 mM HEPES pH 7.5, 150 mM NaCl; 3.8 Å; conditions: both partners purified
[3] = biological target: T1, human GSDMD, full length (human), P57764; assay: ITC; VP-ITC, 20 °C, 25 mM Tris-HCl pH 8.0, 150 mM NaCl; IpaH7.8 (200 μM) injected into GSDMB (10 μM), or IpaH7.8 (625 μM) into hGSDMD or mGSDMD (40 μM); 25 injections; one-site binding model; conditions: remark: other sources report otherwise
[4] = biological target: B1; assay: cryo-EM structure; GSDMB-IpaH7.8 complex co-expressed in E. coli and co-purified, 0.5 mg/ml, 25 mM HEPES pH 7.5, 150 mM NaCl; 3.8 Å; conditions: both partners purified
[5] = biological target: the molecule itself; assay: cryo-EM structure; GSDMB isoform 1 cleaved by 3C protease on liposomes, pores solubilised with C12E8 and purified on Superose 6; C24 symmetry, 4.96 Å (globular domain 4.48 Å)

Shigella flexneri IpaH7.8 (wild type), C-terminal 6XHis construct (from UniProt P18014 1-565) (enzyme)
Kd [1]: 0.44 µM

B1
stoichiometry N [2]: 1
Kd [3]: 20.4 µM

B2
binding result [4]: binds

B3
stoichiometry N [5]: 24
